Consider one protein from FireProtDB (doi:10.1529/biophysj.106.101162).

Values joined by “and” are separate entries in the source; they are usually repeats but may differ in a detail not shown here. Equal entries are not always repeated.

For this data set the following is noted: Thermus thermophilus, 20 °C, GdnHCl, CD, Sodium acetate 50 mM, reversible: Yes, whole UniProt chain shown.

B1: Cytochrome c oxidase subunit 2 wild type, P98052 (protein)
chain: AYTLATHTAGVIPAGKLERVDPTTVRQEGPWADPAQAVVQTGPNQYTVYVLAFAFGYQPNPIEVPQGAEIVFKITSPDVIHGFHVEGTNINVEVLPGEVSTVRYTFKRPGEYRIICNQYCGLGHQNMFGTIVVKE
For the protein B1, the unfolding free energy (pH 3.5) is 2.85 kcal/mol and 2.2 kcal/mol; the unfolding free energy (pH 4) was 3.15 kcal/mol and 2.61 kcal/mol; the unfolding free energy (pH 4.5) was 3.56 kcal/mol and 2.84 kcal/mol and 2.73 kcal/mol; the unfolding free energy (pH 5) was 6.38 kcal/mol and 6.69 kcal/mol and 4.15 kcal/mol; the unfolding free energy (pH 5.5) was found to be 9.01 kcal/mol; the unfolding free energy (pH 6) was 15.9 kcal/mol and 13.2 kcal/mol and 5.97 kcal/mol. For the same protein, the unfolding free energy (pH 7) was 20.2 kcal/mol and 15.4 kcal/mol.
